# Reference: article PMC9076165 (RSC Advances, 2019)
# Like-named read-outs stand apart in the source and are kept apart here. Where a SMILES comes first, the peptide text is derived from it.
# T1: 3h34P1 heptapeptide (L) (synthetic (Ph.D.-7 phage display))
# T1 chain: KNHDWGV
# T2: RsmC (rRNA small subunit methyltransferase C) (Escherichia coli (ASKA collection), UniProt P39406 1-343)
# T2 sequence: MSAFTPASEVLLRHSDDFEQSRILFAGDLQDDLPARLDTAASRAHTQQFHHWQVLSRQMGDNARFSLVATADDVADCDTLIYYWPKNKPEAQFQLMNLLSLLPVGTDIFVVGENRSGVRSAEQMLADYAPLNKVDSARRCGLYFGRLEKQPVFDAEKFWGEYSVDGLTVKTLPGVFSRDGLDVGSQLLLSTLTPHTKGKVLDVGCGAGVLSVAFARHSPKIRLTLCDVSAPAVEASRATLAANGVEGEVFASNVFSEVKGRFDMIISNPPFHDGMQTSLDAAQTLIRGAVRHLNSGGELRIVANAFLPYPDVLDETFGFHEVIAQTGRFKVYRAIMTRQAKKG
# What was measured:
# [1] = Solubility of the peptide in assay buffer / stock solutions; type: physicochemical; details: HK50 buffer (80 mM Hepes pH 7.6, 50 mM KCl), at concentrations equal to or higher than 10 μM
# [2] = biological target: T1, 3h34P1 heptapeptide (L); experiment: tryptophan fluorescence quenching
# [3] = biological target: T1, 3h34P1 heptapeptide (L); experiment: tryptophan fluorescence quenching
# [4] = biological target: T1, 3h34P1 heptapeptide (L); experiment: tryptophan fluorescence quenching
# [5] = biological target: T1, 3h34P1 heptapeptide (L); experiment: tryptophan fluorescence quenching
# [6] = biological target: T2, RsmC (rRNA small subunit …); experiment: FRET
molecule,measurement,setting,value
CC(C)[C@H](NC(=O)CNC(=O)[C@H](Cc1c[nH]c2ccccc12)NC(=O)[C@H](CC(=O)O)NC(=O)[C@H](Cc1c[nH]cn1)NC(=O)[C@H](CC(N)=O)NC(=O)[C@@H](N)CCCCN)C(=O)O [P1] (H-KNHDWGV-OH),Solubility in the buffer used for FRET titrations,[1],low solubility
CCGUCAAGUCAUCAUGGCCC (ssRNA) [3h34],Kd,[2],18 ± 5 nM
GCCCUGAAAAGGGC (ssRNA) [Control RNA 1],binding result,[3],no binding
GAGGCCUUCGGGCCUC (ssRNA) [Control RNA 2],binding result,[4],no binding
GGUGCUGCAUGGCUGUCGG (ssRNA) [5h34],binding result,[5],binds
CCGUCAAGUCAUCAUGGCCC (ssRNA) [3h34-Cy3],binding result,[6],binds
